Measurements: the supplement of paper PMC9170038

System: MS2 coat protein
Test: apparent KD of MS2 coat protein; designed switch direction (-1 OFF switch, 1 ON switch): 1; higher = weaker reporter binding
Method in brief: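 Designed RNA switches with common flanks were made on Illumina chips by stalled E. coli RNA polymerase. Titration with SNAP-549-labelled MS2 coat protein doubled from 0.7 or 1.5 nM up to 3 µM. Apparent KD is each design's median over clusters after curve-fitting normalised fluorescence.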

[1] = input ligand: microRNA oligo, concentration not stated
[2] = Eterna round: R95, input ligand: FMN 200 uM
[3] = Eterna round: R95, input ligand: microRNA oligo, concentration not stated
[4] = Eterna round: R95, input ligand: none

Sequence	apparent KD of MS2 coat protein (input ligand: FMN 200 uM) [nM]	apparent KD of MS2 coat protein [1] [nM]	apparent KD of MS2 coat protein (input ligand: none) [nM]	apparent KD of MS2 coat protein [2] [nM]	apparent KD of MS2 coat protein [3] [nM]	apparent KD of MS2 coat protein [4] [nM]
UGAACCUUCACAGGAUAUCAUGCGAAAAUUGCGUGAGAAGGGUGAAUACGGUGUUCAUAGUUGCACAUGAGGAUCACCCAUGUA [SameState NG1 #54] (Eterna round: R96, puzzle: Same State NG 1)	141	69.2	316			
UGAAUAGUCACAGGAUAUCAUGCGAAAAUUGCGUGAGAAGGGUGGGUGUUGUGCUCAAAGUGCUACAUGAGGAUCACCCAUGUU [SameState NG1 #41] (Eterna round: R96, puzzle: Same State NG 1)	1540	638	1210			
UGAAUAGUGAUAGGAUAUACAUGAGGAAUCCUCGUAGAAGGAUCAUAACAUGAGGAUCACCCAUGUAGCCGUCGAAAGACGGCA [Mat - Same State NG 1 - JL mod - D58] (Eterna round: R96, puzzle: Same State NG 1)	200	72	122			
UGAAUAGUUACAGGAUAUGAGCCGUAAAUUGGGUCAGAAGGGUGGGUGUUCUGCGCUGUGUGUUACAUGAGGAUCACCCAUGUU [SameState NG1 #31] (Eterna round: R96, puzzle: Same State NG 1)	162	34.9	63.4			
UGAAUAUUUACAGGAUAUGAGUUGUAUAGUGGAUCAGAAGGGUGGGUGUUUUGCACGGUGUGUUACAUGAGGAUCACCCAUGUU [SameState NG1 #26] (Eterna round: R96, puzzle: Same State NG 1)	412	206	196			
UGACACACGGCAGGAUAUCGAUUCCAAAGGAAUCGAGAAGGGCCUCAUGUCGUGGAAACGUGACAUGAGGAUCACCCAUGUUGC [Omei SS(NG)1 Cv15] (Eterna round: R96, puzzle: Same State NG 1)	222	15.8	96			
UGACACACGGCAGGAUAUGCUUAGCAAAGCUAAGCAGAAGGGCCUCAUGUCGUGGAAAUGUGACAUGAGGAUCACCCAUGUCGC [Omei SS(NG)1 Cv5] (Eterna round: R96, puzzle: Same State NG 1)	27.3	17.8	29.9			
UGAGCCGGCACUGAGGAUAUUCAUAUUUAAACAUGAGGAUCACCCAUGUAGGCCAGAAGGCCUUGGGAGAAGGCAGGUCGGCUCC [salish99_ss2_r3_079] (puzzle: Same State 2)				25.7	264	459
UGAUCGCUUGGAGGAUAUCCAACUAUCCUAGUUGGAGAAGGCCAAGCUACAGAGCUAAGCUUGGAAGUCACUUCGAAUCAACAC [pwkr ssNG1 F9.4] (Eterna round: R96, puzzle: Same State NG 1)	2.23	129	155			
UGCCGGAUACCGACUACAUGAGGAUCACCCAUGUUAUCUCGUUAGGAUAUACUAACAACAGAUUAGUAGAAGGGACGCGGGCUU [Eternabot solution 23] (Eterna round: R96, puzzle: Same State NG 3)	25.5	24.6	30.7			
UGCUAGUGGGUAGGAUAUCUAGGAUAUGGGAAAGACUAAGUCUGUAGGUCACCUAACCCAGAAGGAGAGAAGGACCAUUCAGCU [pwkr ssNG2 2FMN + F9.26] (Eterna round: R96, puzzle: Same State NG 2)	165	22.5	38			
UGCUUCGUGUAAGGAUAUGCUGCCGUUUCGGCUGCAGAAGGUACUAUAAUACAUGAGGAUCACCCAUGUCUCUCGCUUUGCGGG [salish99_SSng1_r04_305] (Eterna round: R96, puzzle: Same State NG 1)		42.1				
UGGAGACGUCAAGGAUAUGCUACCGUUUCGGUAGCAGAAGGUGAUCACAUGAGGAUCACCCAUGUAUGCAUGCGUGAGCGUGCU [JL SSNG1 3.52] (Eterna round: R96, puzzle: Same State NG 1)	72.1	2.49	6.24			
UGGAUCUAGGCUUGCCUGGGUCCAUGCUGACAUGAGGAUCACCCAUGUGCAUCCUACAAGCUUUUUGCUUGUCUGCC (Eterna round: R96, puzzle: Sensor for hsa-mir-208a)	416	267	216			
UGGAUCUAGGCUUGCCUGGGUCCAUGCUGACAUGAGGAUCACCCAUGUGCAUCCUACAAGCUUUUUGCUUGUCUGCC (puzzle: Sensor for hsa-mir-208a)				146	122	93.7
UGGCUCAGACGAGGAUAUGGUCAUGGCGCUUCGGCGCAUACAUGAGGAUCACCCAUGUAGGGUGAUCAGAAGGCGUCUGAGCCA [SSNG2/9-A2] (Eterna round: R96, puzzle: Same State NG 2)	87.2	573	715			

Sequence	apparent KD of MS2 coat protein (input ligand: FMN 200 uM) [nM]	apparent KD of MS2 coat protein [1] [nM]	apparent KD of MS2 coat protein (input ligand: none) [nM]	apparent KD of MS2 coat protein [2] [nM]	apparent KD of MS2 coat protein [3] [nM]	apparent KD of MS2 coat protein [4] [nM]
UGGCUGAGUCGAGGAUAUGAUCUUCAUAUAUAUACAUGAGGAUCACCCAUGUAUAAUUACAUGGAUCAGAAGGCGACUCAGCCA [SSNG2/13-A1] (Eterna round: R96, puzzle: Same State NG 2)		22.9				
UGGUAACAUGAGGAUCACCCAUGUCAAAUGAAUCGAGGAUAUGGGAACUAACAACACAAACUAGAAGGCGAACUUG [Altered State 1-9 - Jieux - Same State 1] (puzzle: Same State 1)				32.6	39.6	91.5
UGGUACAUGGGAGGAUAUCAUGUAGAAACAUGAGGAUCACCCAUGUUGAUGGAGACAUCGGAGAUUGAGAAGGCCCAUGUACCU [JL SSNG1 3.57] (Eterna round: R96, puzzle: Same State NG 2)	15.6	33.6	46			
UGGUACAUGGGAGGAUAUGGGCAAGGGACAUGAGGAUCACCCAUGUAUUAAAUGCCGAGAGGCAUCUAGAAGGCCCAUGUACCU [JL SSNG1 3.88] (Eterna round: R96, puzzle: Same State NG 2)	17.8	79.8	173			
UGGUACAUGGGAGGAUAUGGGCAUGAGACAUGAGGAUCACCCAUGUUAUAAAAGCCGAGAGGCAUCUAGAAGGCCCAUGUACCU [JL SSNG1 3.91] (Eterna round: R96, puzzle: Same State NG 2)	15.2	95.2	139			
UGUAAACAUGAGGAUCACCCAUGUUUUUUCAUGGGAGGAUAUCUGAGUUAAGUAUAUUAAGGAGAAGGCCUAUUGU [× ×•×ª×• ×ž×“×™× ×” × ×—×ª-02] (puzzle: Same State 1)				83.8	78	286
UGUACCUGCACAGGAUAUCAUGCGAAAAUUGCGUGAGAAGGGUGAAUACUGUCUUUCUAAGAGUACAUGAGGAUCACCCAUGUA [SameState NG1 #61] (Eterna round: R96, puzzle: Same State NG 1)	156	91.8	119			
UGUCCAGCCUGAGCUGGACAAAAGCAUGUACAUGAGGAUCACCCAUGUUCAUGUACAAGCUUUUUGCUCGUCUUAUU [salish99_208a_r3_048] (puzzle: Sensor for hsa-mir-208a)				465	14.1	491
UGUGUCAUAGGUUUUUUAGCUCGUCUGAUACAUGAGGAUCACCCAUGUUAUAGCCCUGUGCUUGCGCAGGGCUGAGG [JL shm-2.xx] (puzzle: Sensor for hsa-mir-208a)				50.2	36.6	56.7
UGUUGUAUUACAGGAUAUCUAGUAUGUUUAUUUAGAGAAGGGUAUUCACAUGAGGAUCACCCAUGUAUAUACGAGGAAGUUGUG [JMF's solution 38] (Eterna round: R96, puzzle: Same State NG 1)		30.8				
UGUUGUAUUACAGGAUAUCUAGUAUUAUUAUUUAGAGAAGGGUAUUCACAUGAGGAUCACCCAUGUAUAUACGAGGAAGUUGUG [JMF's solution 39] (Eterna round: R96, puzzle: Same State NG 1)		28.2				
UGUUGUAUUACAGGAUAUCUAUUAGUUAUAUUUAGAGAAGGGUAUUCACAUGAGGAUCACCCAUGUAUAUACGAGGAAGUUGUG [JMF's solution 91] (Eterna round: R96, puzzle: Same State NG 1)		42.3				
UGUUGUAUUACAGGAUAUCUAUUGUUUUUGUUUAGAGAAGGGUAUUCACAUGAGGAUCACCCAUGUAUAUACGAGGAAGUUGUG [JMF's solution 80] (Eterna round: R96, puzzle: Same State NG 1)		45				
UUAAAACAUGAGGAUCACCCAUGUAAUAUAAUGGGAGGAUAUCUGAUUUAAUUAAAUUUAAGAGAAGGCCUAAAUU [Mat - Same State 1 - Mod of Eli - D55] (puzzle: Same State 1)				28.9	128	169
UUAAAACAUGAGGAUCACCCAUGUCAACAAAGUCGAGGAUAUGGGCAAAUAAAAUAAGAACCAGAAGGCGAAUAAC [salish99_SS1_r3_007] (puzzle: Same State 1)				43.9	422	390
UUAAGCCACGGGCAGGAUAUGUAUUAAAGUACAUGAGGAUCACCCAUGUGCAGGUGUAACACCUGACAGAAGGGCCAAUCGCGGC [Soondi - 3] (puzzle: Same State 2)				16	68	72.7
